According to publication PMC12699821, “STARD4 suppresses tumorigenesis and attenuates enzalutamide resistance via lipid metabolic reprogramming and AR stabilization in prostate cancer” (Journal of Experimental & Clinical Cancer Research : CR, 2025):

Target: T1, GST-tagged AR (human (Gene ID 367 is the human gene), UniProt P10275 1-920)
T1 construct: androgen receptor, Gene ID 367, in vector pGEX-4T-1; also called GST-AR; source: BL21 (Rosetta) bacterial cells, purified (protein purification kit)
T1 sequence (looked up): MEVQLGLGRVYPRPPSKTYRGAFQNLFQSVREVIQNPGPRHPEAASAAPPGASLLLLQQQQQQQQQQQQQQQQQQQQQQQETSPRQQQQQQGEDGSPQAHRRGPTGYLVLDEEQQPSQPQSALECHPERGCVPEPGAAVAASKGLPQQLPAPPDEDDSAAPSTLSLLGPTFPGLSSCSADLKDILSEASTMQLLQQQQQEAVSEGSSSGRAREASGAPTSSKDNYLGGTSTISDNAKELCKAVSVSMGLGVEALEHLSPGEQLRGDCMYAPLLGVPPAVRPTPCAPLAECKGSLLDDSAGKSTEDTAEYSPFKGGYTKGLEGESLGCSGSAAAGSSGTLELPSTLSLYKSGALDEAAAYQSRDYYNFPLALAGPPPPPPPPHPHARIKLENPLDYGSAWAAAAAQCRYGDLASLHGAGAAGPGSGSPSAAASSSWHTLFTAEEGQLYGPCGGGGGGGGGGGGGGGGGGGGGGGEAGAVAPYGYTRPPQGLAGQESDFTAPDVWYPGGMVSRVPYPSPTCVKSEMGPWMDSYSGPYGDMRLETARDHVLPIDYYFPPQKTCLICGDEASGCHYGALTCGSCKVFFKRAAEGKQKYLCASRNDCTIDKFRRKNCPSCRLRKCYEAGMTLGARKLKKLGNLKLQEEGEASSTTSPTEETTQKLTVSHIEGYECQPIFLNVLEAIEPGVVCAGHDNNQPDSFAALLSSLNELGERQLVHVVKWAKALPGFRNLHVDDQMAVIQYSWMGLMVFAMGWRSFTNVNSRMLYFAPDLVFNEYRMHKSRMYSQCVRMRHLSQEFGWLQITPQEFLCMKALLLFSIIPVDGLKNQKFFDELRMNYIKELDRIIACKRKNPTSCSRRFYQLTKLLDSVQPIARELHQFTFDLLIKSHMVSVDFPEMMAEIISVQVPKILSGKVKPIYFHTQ
Test: pull-down; purified GST-tagged protein immobilised on glutathione-Sepharose beads, incubated with His-tagged protein in PMSF-supplemented affinity isolation buffer, western blotting
Conditions: both partners purified

B1: His-tagged STARD4 (natural protein, human (Gene ID 134429 is the human gene), UniProt Q96DR4 1-205, looked up)
chain: MEGLSDVASFATKLKNTLIQYHSIEEDKWRVAKKTKDVTVWRKPSEEFNGYLYKAQGVIDDLVYSIIDHIRPGPCRLDWDSLMTSLDILENFEENCCVMRYTTAGQLWNIISPREFVDFSYTVGYKEGLLSCGISLDWDEKRPEFVRGYNHPCGWFCVPLKDNPNQSLLTGYIQTDLRGMIPQSAVDTAMASTLTNFYGDLRKAL
notes: STARD4, Gene ID 134429, vector printed as pGMLV; also called His-STARD4; source: BL21 (Rosetta) bacterial cells, purified (protein purification kit)
- binding result: binds
